What was measured:
FrmR [1] = target: T1, FrmR (Salmonella enterica, UniProt A0A0H3NLH8, P2S); assay: biochemical
T1 construct: gene SL1344_1558

RcnR [2] = target: RcnR (Salmonella enterica, UniProt Q7CPV3); assay: biochemical
FrmR [3] = target: T2, FrmR (Salmonella enterica, UniProt A0A0H3NLH8, C35A); assay: biochemical
T2 construct: gene SL1344_1558

FrmR [4] = target: T3, FrmR (Salmonella enterica, UniProt A0A0H3NLH8); assay: biochemical
T3 construct: gene SL1344_1558

[5] = target: FrmR^E64H (Salmonella enterica serovar Typhimurium FrmR with Glu64 to His) (Salmonella enterica serovar Typhimurium strain SL1344); assay: crystal structure; FrmR E64H 0.5 mM in 400 mM NaCl, 1 mM EDTA, 1 mM DTT, 10 mM HEPES pH 7.0; crystals in 20 mM NaCl, 23% (w/v) PEG 4000, 10 mM BisTris pH 6.5, hanging drop vapor diffusion at 20 °C; one homotetramer in the asymmetric unit; 2.19 Å
FrmRE64H = FrmRE64H (Salmonella enterica serovar Typhimurium …, UniProt A0A0H3NLH8 2-91, E64H); assay: fluorescence anisotropy; 5 mM EDTA, apo; 10 mM HEPES pH 7.0, 60 mM NaCl, 240 mM KCl, 5 mM EDTA (or 5 uM NiCl2/CoCl2), 25 C, 10 nM DNA; anaerobic except FrmRC35A; Kd per tetramer (two nondissociable tet); settings: protein: recombinant; chain copies: 8
FrmRP2S = FrmRP2S (Salmonella enterica serovar Typhimurium …, UniProt A0A0H3NLH8 1-91, P2S); assay: as above; settings: protein: recombinant; chain copies: 8
FrmR [6] = target: FrmR (Salmonella enterica serovar Typhimurium …, UniProt A0A0H3NLH8 2-91); assay: fluorescence anisotropy; 800 uM GSH, 5 mM EDTA; 10 mM HEPES pH 7.0, 60 mM NaCl, 240 mM KCl, 5 mM EDTA (or 5 uM NiCl2/CoCl2), 25 C, 10 nM DNA; anaerobic except FrmRC35A; Kd per tetramer (two nondissociable tet); settings: protein: recombinant; chain copies: 8
RcnRS2P = RcnRS2P (Salmonella enterica serovar Typhimurium …, UniProt Q7CPV3 1-90, S2P); assay: fluorescence anisotropy; 5 mM EDTA, apo; 10 mM HEPES pH 7.0, 60 mM NaCl, 240 mM KCl, 5 mM EDTA (or 5 uM NiCl2/CoCl2), 25 C, 10 nM DNA; anaerobic except FrmRC35A; Kd per tetramer (two nondissociable tet); settings: protein: recombinant; chain copies: 8; label: 5'-HEX on strand 1; blunt
RcnR [7] = target: T4, RcnR (Salmonella enterica serovar Typhimurium …, UniProt Q7CPV3 1-90); assay: as above; settings: protein: recombinant; chain copies: 8; label: 5'-HEX on strand 1; blunt
T4 sequence: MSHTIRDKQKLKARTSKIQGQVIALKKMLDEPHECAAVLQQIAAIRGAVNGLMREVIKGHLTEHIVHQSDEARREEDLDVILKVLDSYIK

Work on C=O [formaldehyde] yielded a Kd (FrmR [1]) greater than 50000 nM, a Kd (RcnR [2]) greater than 100000 nM and a Kd (FrmR [3]) greater than 100000 nM. The Kd (FrmR [4]) was 10000 to 20000 nM.

Work on “FrmR^E64H (Salmonella enterica serovar Typhimurium FrmR with Glu64 to His) (natural protein)” yielded a stoichiometry N [5] of 4.

B1: frmRAPro (dsDNA)
DNA 1: TTCTGATAGTATACCCCCCTATAGTATATGGAG
DNA 2: CTCCATATACTATAGGGGGGTATACTATCAGAA
With B1 the binding result (FrmRE64H) was “binds”, the Kd (FrmRP2S) was 150 nM and the binding signal (FrmR [6]) was roughly 2.5 fold tighter Kd vs apo.

B2: rcnRAPro (dsDNA)
DNA 1: TACTCCCCCCCAGTATAGAATACTACCCCCCAGTA
DNA 2: TACTGGGGGGTAGTATTCTATACTGGGGGGGAGTA
Work on B2 yielded a Kd (RcnRS2P) of 160 nM and a Kd (RcnR [7]) of 150 nM.

— article PMC5016687, “The Effectors and Sensory Sites of Formaldehyde-responsive Regulator FrmR and Metal-sensing Variant” (The Journal of Biological Chemistry, 2016)
